Drawing on the Immune Epitope Database (IEDB), this text covers Kd for 3 sequences.

One assay deals with HLA-A*69:01. Kind of assay: IEDB peptide-MHC binding, purified MHC/competitive/fluorescence; filed as Kd, often an IC50 or EC50 that approximates it; ≥ and ≤ were set here for values at or beyond the usual limits of such assays.
The next assay addresses HLA-A*11:01. Kind of assay: IEDB peptide-MHC binding, purified MHC/direct/fluorescence; filed as Kd, often an IC50 or EC50 that approximates it; ≥ and ≤ were set here for values at or beyond the usual limits of such assays.
The target of another assay is HLA-B*51:01. Described as above.
For assay [1], the target named is HLA-A*31:01. The assay is described as above. The note with it: source organism: Escherichia coli O157:H7.
The target in a further assay is HLA-B*48:01. The assay is described as above.
A further assay deals with HLA-B*18:01. The assay is described as above. As to conditions: source organism: Escherichia coli O157:H7 str. EC869.
The next assay concerns the target HLA-B*27:05. The assay is described as above.
A further assay deals with HLA-B*57:01. The description is as above.
In a further assay the target is HLA-B*40:01. Described as above.
The target of the next assay is HLA-A*01:01. Described as above.
The next assay addresses HLA-A*03:01. The assay is described as above.
The next assay has as its target HLA-A*23:01. The assay is described as above.
Another assay has as its target HLA-A*24:03. The assay is described as above.
In another assay the target is HLA-A*26:02. The assay is described as above. As to conditions: source organism: Escherichia coli O157:H7 str. EC869.
A further assay addresses HLA-B*46:01. The description is as above.
For the next assay, the target named is HLA-B*15:01. Described as above.
The target of a further assay is HLA-A*26:03. Described as above.
Another assay has as its target HLA-A*02:01. The assay is described as above.
Another assay concerns the target HLA-B*44:02. The assay is described as above.
Another assay addresses HLA-B*07:02. Described as above.
A further assay has as its target HLA-B*08:01. Described as above.
The target of the next assay is HLA-A*29:02. Described as above.
The target in the next assay is HLA-A*02:19. Described as above.
The target of another assay is HLA-A*02:50. The description is as above.
The target in the next assay is HLA-A*02:12. Described as above.
The next assay deals with HLA-A*26:01. The assay is described as above.
For the next assay, the target named is HLA-B*58:01. Described as above.
A further assay deals with HLA-B*38:01. Described as above. The note with it: source organism: Escherichia coli O157:H7 str. EC869.
The target in assay [2] is HLA-A*31:01. Nature of the assay: IEDB peptide-MHC binding, purified MHC/competitive/fluorescence; filed as Kd, often an IC50 or EC50 that approximates it; ≥ and ≤ were set here for values at or beyond the usual limits of such assays. The note with it: source organism: Vibrio parahaemolyticus AN-5034.
The target in another assay is HLA-B*15:17. The description is as above. As to conditions: source organism: Vibrio parahaemolyticus AN-5034.
For a further assay, the target named is HLA-A*30:01. Nature of the assay: IEDB peptide-MHC binding, purified MHC/direct/fluorescence; filed as Kd, often an IC50 or EC50 that approximates it; ≥ and ≤ were set here for values at or beyond the usual limits of such assays. The note with it: source organism: Vibrio parahaemolyticus RIMD 2210633.
Another assay has as its target HLA-B*39:01. The description is as above. The note with it: source organism: Vibrio parahaemolyticus RIMD 2210633.
The next assay deals with HLA-A*02:11. The assay is described as above. As to conditions: source organism: Vibrio parahaemolyticus RIMD 2210633.
A further assay deals with HLA-A*30:02. Kind of assay: IEDB peptide-MHC binding, purified MHC/competitive/radioactivity; filed as Kd, often an IC50 or EC50 that approximates it; ≥ and ≤ were set here for values at or beyond the usual limits of such assays. As to conditions: source organism: Dengue virus 2 Jamaica/1409/1983.
Another assay has as its target HLA-B*15:02. Kind of assay: IEDB peptide-MHC binding, purified MHC/direct/fluorescence; filed as Kd, often an IC50 or EC50 that approximates it; ≥ and ≤ were set here for values at or beyond the usual limits of such assays. As to conditions: source organism: Dengue virus.
Where [3] appears, read: source organism: Escherichia coli O157:H7.
Setting [4] is: source organism: Escherichia coli O157:H7 str. EC869.
[5] abbreviates: source organism: Vibrio parahaemolyticus.
[6] abbreviates: source organism: Vibrio parahaemolyticus RIMD 2210633.

What is called Kd is the free concentration of one partner at which half of the binding sites on the other are occupied at equilibrium, for simple one-to-one binding. Take ETIGLVRAL: the dissociation constant (Kd) was 0.0006 µM with HLA-A*69:01 (source organism: Escherichia coli B171); at least 20 µM with HLA-A*11:01 (setting [3]); at least 20 µM in the assay with HLA-B*51:01 (setting [4]); at least 20 µM with HLA-A*31:01 [1]; at least 20 µM in the assay with HLA-B*48:01 (setting [3]); at least 20 µM with HLA-B*18:01. Further, the Kd with HLA-B*27:05 (setting [3]), with HLA-B*57:01 (setting [4]), in the assay with HLA-B*40:01 (setting [3]), with HLA-A*01:01 (setting [3]), in the assay with HLA-A*03:01 (setting [3]) and in the assay with HLA-A*23:01 (setting [4]) was at least 20 µM throughout. For the same sequence, the dissociation constant (Kd) was at least 20 µM in the assay with HLA-A*24:03 (setting [4]); at most 0.001 µM in the assay with HLA-A*26:02; at least 20 µM in the assay with HLA-B*46:01 (setting [3]); 1 µM with HLA-B*15:01 (setting [3]); at most 0.001 µM with HLA-A*26:03 (setting [4]); at least 20 µM with HLA-A*02:01 (setting [3]). Further, the Kd with HLA-B*44:02 (setting [4]) is at least 20 µM; in the assay with HLA-B*07:02 (setting [3]) it was at least 5 µM; with HLA-B*08:01 (setting [4]), at least 20 µM; with HLA-A*29:02 (setting [4]), at least 20 µM; with HLA-A*02:19 (setting [4]), at least 20 µM; in the assay with HLA-A*02:50 (setting [4]), at least 20 µM. For the same sequence, the equilibrium dissociation constant (Kd) is at least 20 µM in the assay with HLA-A*02:12 (setting [4]), 0.004 µM with HLA-A*26:01 (setting [4]), at least 20 µM in the assay with HLA-B*58:01 (setting [3]) and at least 20 µM with HLA-B*38:01.
Consider DTWHGFKNM, for which the Kd in the assay with HLA-A*31:01 [2] is at least 20 µM; in the assay with HLA-A*69:01 (source organism: Vibrio parahaemolyticus AN-5034), 0.0223 µM; in the assay with HLA-B*15:17 it was at least 20 µM; with HLA-A*11:01 (setting [5]), at least 20 µM; in the assay with HLA-B*51:01 (setting [6]), at least 20 µM; with HLA-B*48:01 (setting [5]) it was at least 20 µM. Moreover, the Kd with HLA-B*27:05 (setting [5]), in the assay with HLA-B*57:01 (setting [5]), with HLA-B*40:01 (setting [5]), with HLA-A*01:01 (setting [5]), with HLA-A*03:01 (setting [5]) and in the assay with HLA-A*23:01 (setting [6]) was at least 20 µM each time. Besides, the dissociation constant Kd with HLA-A*24:03 (setting [6]) is at least 20 µM; with HLA-B*46:01 (setting [5]) it was at least 20 µM; with HLA-B*15:01 (setting [5]) it was at least 20 µM; with HLA-A*30:01, at least 20 µM; in the assay with HLA-A*26:03 (setting [6]) it was 0.011 µM; in the assay with HLA-A*02:01 (setting [5]), at least 20 µM. The Kd in the assay with HLA-B*44:02 (setting [6]), in the assay with HLA-B*07:02 (setting [5]), with HLA-B*08:01 (setting [6]), with HLA-B*39:01, in the assay with HLA-A*02:11 and with HLA-A*29:02 (setting [6]) was at least 20 µM in each case. Also, the Kd in the assay with HLA-A*02:19 (setting [6]) is at least 20 µM; with HLA-A*02:50 (setting [6]), at least 20 µM; with HLA-A*02:12 (setting [6]), at least 20 µM; in the assay with HLA-A*26:01 (setting [6]), 0.171 µM; in the assay with HLA-B*58:01 (setting [5]) it was at least 20 µM.
Regarding SQHNYRPGY, the equilibrium dissociation constant (Kd) in the assay with HLA-A*30:02 was 0.777 µM; in the assay with HLA-B*46:01 (source organism: Dengue virus), at least 20 µM; with HLA-B*15:02, 0.282 µM.
